Literature values, collected in PMC5911825.

Biological target: Cys797 (UniProt position 797, LMPFGCLLDYV)
Test: other (described only as 'titration experiments')
Conditions: wild-type EGFR; ligand state not stated

For “Epidermal growth factor receptor (EGFR), wild type (Homo sapiens)”, the pKa is given as 5.5.
